Among the data in article doi:10.1101/2022.11.11.516191 are stoichiometry N values, retold here.

Test in all cases: SEC
Settings in all cases: remark: other sources report otherwise

Assay [1] deals with T1, 14-3-3 β 130nY (human), P31946.
T1 chain: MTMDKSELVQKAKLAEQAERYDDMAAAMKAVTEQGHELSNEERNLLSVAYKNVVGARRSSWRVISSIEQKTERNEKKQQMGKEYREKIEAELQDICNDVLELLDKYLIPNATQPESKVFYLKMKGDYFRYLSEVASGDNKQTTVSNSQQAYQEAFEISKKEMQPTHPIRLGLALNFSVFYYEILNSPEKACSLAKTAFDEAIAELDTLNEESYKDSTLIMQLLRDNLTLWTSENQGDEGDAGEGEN

Assay [2] has as its target T2, 14-3-3 β wild-type (human), P31946.
T2 chain: T1 chain

Assay [3] concerns the target T3, 14-3-3 β 213nY (human), P31946.
T3 chain: T1 chain

B1: 14-3-3 β 130nY, P31946 1-246 (natural protein)
chain: T1 chain
modifications: here or on the partner: 3-nitro-tyrosine at 130 (β-isoform numbering); 3-nitro-tyrosine at 130 (β-isoform numbering)
The stoichiometry N is the number of molecules, sites or subunits per partner or assembly. As to B1, in assay [1], the stoichiometry N came to 2.

B2: 14-3-3 β wild-type, P31946 1-246 (natural protein)
chain: T1 chain
B2 came in with a stoichiometry N in assay [2] of 2.

B3: 14-3-3 β 213nY, P31946 1-246 (natural protein)
chain: T1 chain
modifications: here or on the partner: 3-nitro-tyrosine at 213 (β-isoform numbering); 3-nitro-tyrosine at 213 (β-isoform numbering)
For the molecule B3, the stoichiometry N in assay [3] was found to be 2.
